The values that follow come from the nanobody polyreactivity screen of Harvey et al. (2022).

This data set can be described thus: yeast display, Sf9 membrane polyspecificity reagent, FACS + sequencing; frameworks hold sequencing errors. The method, boiled down:
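Nanobodies came from a synthetic yeast display library in Saccharomyces cerevisiae BJ5465, induced with galactose for 36–48 hours and stained for 1 hour at 4 °C with 10% biotinylated, detergent-solubilized Sf9 membrane reagent. Cells were enriched on streptavidin microbeads and then FACS-sorted, with low and high (top ~1%) gates set on anti-HA fluorescence for expression and streptavidin fluorescence for reagent binding. Each polyreactivity label reflects the gate a clone came from. Genes were amplified by colony PCR, sequenced by MiSeq 2 × 250 and filtered by CDR length.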
Regarding “QVQLVESGLGLVQAGGSLRLSCAASGSIFQRYAMGWYRQAPGKEREFVAAISGRGGSTYYADSVKGRFTISRDNAKNTVYLQMNSLKPEDTAVYYCAADSSRFYGRPRFYYWGQGTQVTVSS”, the “polyreactivity (PSR sort gate)” value was “high polyreactivity”.

For the sequence “QVQLVESGLGLVQAGGSLRLSCAASGSTFYLYTMGWYRQAPGKERELVAAITYSGGRTYYADSVKGRFTISRDNAKNTVYLQMNSLKPEDTAVYYCAARRLPRPWTSTSDYWGQGTQVTVSS”, the “polyreactivity (PSR sort gate)” value is reported as “high polyreactivity”.

On to “QVQLVESGLGLVQAGGSLRLSCASSGSICSTYAMGLYRQAPGKERELVAAITTSGGRTYYADSVKGRFTISRDNAKNSVYLQMNSLKPEDTAVYFCNAVRGGRYGLDYWGQGTQVTVSS”, for which the “polyreactivity (PSR sort gate)” value is listed as “high polyreactivity”.

Turning to “QVQLVESGPGLVQAGGSLRLSCASSGFIFRNYPMGWYRHAPGKERELVASISRGTSTNYADSVKGRFTISRDNAKNTVYLQRNSLKPEDTAVYYCNKRFYYHPFDYWGQGTQVTVSS”, the “polyreactivity (PSR sort gate)” value is recorded as “high polyreactivity”.

Take “QVQLVESGRGLDQAGGSLRLSCAASGSTFESYVMGWYRQAPGKERELVADITKSGGNTYYADSVKGRFTISRDNWMITVYLLMNSLKPEDTAVYYCAVERGRRGMDYWGQGTQVTVSS”: the “polyreactivity (PSR sort gate)” value was “low polyreactivity”.

Regarding “QVQLVESGRGLVEAGGSLRLICAASGFIIRYYAMGWYRQAPWKERELVAAISTSGGRTYYADSVKGRFTISRDNAKNTVYLQMNSLKPEDTAVYYCNAYTHNRYYWGQGTQVTVSS”, the “polyreactivity (PSR sort gate)” value is recorded as “high polyreactivity”.

As for “QVQLVESGRGLVPAGGSLRLSCAASGSIFTDYAMGWSRKAPGKERELVATITWSDASTYYTDSVKGRFTISRDNAKNTVYLQMNSLKPEDTAVYYFARRSRYSKGYDYWGQGTQVTVSS”, the “polyreactivity (PSR sort gate)” value is given as “low polyreactivity”.

In the case of “QVQLVESGRGLVQAGCSLRLSCAASGSILHYNAMGWYRQAPGKERELVASITNSGRTYYADSVKGRFTISRDNAKNTDYLHMNSLKPEDTAVYYCAAQGTWRYFGHRHNYWGQGTQVTVSS”, the “polyreactivity (PSR sort gate)” value is reported as “high polyreactivity”.

Regarding “QVQLVESGRGLVQAGGSLLLICAASGSTFYTNAMGWYRQAPGKERELVASITGGGSTYYADSVKGRFTISRDNAKNTVYLQMNSLKPEDTAVYYWAAVNFGGGWEFDSWGQGTKVTVSS”, the “polyreactivity (PSR sort gate)” value is “low polyreactivity”.

Regarding “QVQLVESGRGLVQAGGSLPLRCAASGPTFPFNAMGRYRQAPGKERELVAAISWRDGRTYYADSVKGRFTISRDNAKNTVYLHMNSLKPEDTAVYYCNVVKRRSDWGMDYWGQGTQVSVSS”, the “polyreactivity (PSR sort gate)” value is “high polyreactivity”.

In the case of “QVQLVESGRGLVQAGGSLPLSCAASGRTFPSNTMGWYRPAPGKERELVAAINRSGGTTYYADSVKGRCTISRDKAKNTVYLQINSLKPEDTAVYYCAVLSRYKACRKYDYWGQCTQVTVSS”, the “polyreactivity (PSR sort gate)” value is “high polyreactivity”.

Consider “QVQLVESGRGLVQAGGSLPLSCSASGSIFAYYTMGWYRQAPGKERDLVAAISETGGSTYYADSVKGRFTISRDIAKNTVYLQMNSLKPEDTAVYYCNADKYYYYTGQEYYPQYGYWGQGTQVSVSS”, for which the “polyreactivity (PSR sort gate)” value is “low polyreactivity”.

Regarding “QVQLVESGRGLVQAGGSLRISCAASGFTFVRYVMGWYRQAPGTESELVAAISRSGGSTHYADSVKGRFTISRDNAKNTVYFQMTSLKPEDTAVYYCAAACPRWPGQGDYWGQGTQVTVSS”, the “polyreactivity (PSR sort gate)” value is reported as “high polyreactivity”.

Take “QVQLVESGRGLVQAGGSLRISCAASGRTFRHNVMGWYRQAAGQERELVAAITWGDASTYYADSVKGRFTISRDNAKNTVYLQMNSLKPEDTAVYYCAASDYRRSYDYWGQGTQVTVSW”: the “polyreactivity (PSR sort gate)” value is “low polyreactivity”.

Regarding “QVQLVESGRGLVQAGGSLRISCAASGRTFYSYAMGWYRQAPGKERELVAAITSSGGRTYYADSVKGRFTISRDNAKNTVYLQMNSLKPEDTAVYYCNKLRRSPNSQYYYWGQGTQVTVSS”, the “polyreactivity (PSR sort gate)” value is reported as “high polyreactivity”.

In the case of “QVQLVESGRGLVQAGGSLRISCAASGSTFIFNTMGWYRQAPGKEMELVATITGDGRTNYADSVKGRFTISRDNAKNTVYLQMNSLKPEDTAVYYCDADGYDQYPLWSPPGDYWGQGTQVTVSS”, the “polyreactivity (PSR sort gate)” value is listed as “low polyreactivity”.

As to “QVQLVESGRGLVQAGGSLRLRCAASGSIFKSNVMGWYRPAPGKERELVAVITRSGGSTYYADSEKGRFTISRDNAKNTVYLQMNSLKPEDTAVYYCNRAAGYWAGYYHWGQGTQVTVSS”, the “polyreactivity (PSR sort gate)” value was “high polyreactivity”.

For “QVQLVESGRGLVQAGGSLRLRCAASGSTFNENVMGWYRQAPGKERELVAAIRTGSGSTYYADSVKGRFTISRDNAKNTVYLQMNSLKPEDTAVYYCYKDRGYSSLFSLFPGDYWGQGTQVTVSS”, the “polyreactivity (PSR sort gate)” value is given as “low polyreactivity”.

Consider “QVQLVESGRGLVQAGGSLRLSCAASGFTFAFYAMGWYRQAPGKERELVAAISRRGGSTTYADSVKGRFTISRDNAKNTVYLQMNSLIPEDSAVYYCNAVSTRNPGPDYYYWGQGTQVTVSS”, for which the “polyreactivity (PSR sort gate)” value is “high polyreactivity”.

Turning to “QVQLVESGRGLVQAGGSLRLSCAASGFTFGVNAMGWYRQAPGKERELVAAITRSGGTTYYADSVKGRFTISRDNAKNTVYLQMNSLKPEDTAVYYCNRRARSYADDYWGQGTQVTVSS”, the “polyreactivity (PSR sort gate)” value is given as “high polyreactivity”.

For “QVQLVESGRGLVQAGGSLRLSCAASGFTFPDNTMGRYRQAPGKERVLVAGIRRRGGSTYYADSVKGRFTISRDHAKKTVSLQMNSLKPEDTAVYYCAASRAVTQYSGGGYWGQGTQVTVSS”, the “polyreactivity (PSR sort gate)” value is “high polyreactivity”.

With “QVQLVESGRGLVQAGGSLRLSCAASGFTFSYYAKGWYRQAPGKEREFVAAISWSGGSTYYADSVKGRFTLSRDNAKNTVYLQMNSLKPEDTAVYNSAARSTGGSPGRRFTRGYDYWGQGTQVTVSS”, the “polyreactivity (PSR sort gate)” value is reported as “high polyreactivity”.

As for “QVQLVESGRGLVQAGGSLRLSCAASGFTFYYYAMGRYRQAPGKERELVAAISTRDGNTYYADSVKARFTISRDNAKNTVYLQMKSLKTEVTAVYYCAAAYFRYYPYDYWGQGTLVTVSS”, the “polyreactivity (PSR sort gate)” value is “low polyreactivity”.

For “QVQLVESGRGLVQAGGSLRLSCAASGGIFTDYTMGWYRQAPGKERELVAAITWTGGSTYYADSVKGRFTISRDNAKNTFYLQMNSLKPEDSAVYYCAADDYWVNLVYWGQGTQVTVSS”, the “polyreactivity (PSR sort gate)” value was “low polyreactivity”.

On to “QVQLVESGRGLVQAGGSLRLSCAASGGTFGWYAMGWYRQAPGKERELVAAISQGGGSTYYADSVKGRFTISRDNAKNTVYLQMNSLKPEDTAVYYCAAYLGRAKGYEYWGQGTQVTVSS”, for which the “polyreactivity (PSR sort gate)” value is “high polyreactivity”.

On to “QVQLVESGRGLVQAGGSLRLSCAASGIIFELYAMGWYRQAPGKEREFVAAINFSDGSTDYADSVKGRFTISRDNAKKTVYLKMNSLKPEDTAVYYCNADSIAYGSIIHGYWGQGTQVTVSS”, for which the “polyreactivity (PSR sort gate)” value is reported as “low polyreactivity”.

For “QVQLVESGRGLVQAGGSLRLSCAASGIIFKRYAMGWYRQAPGKERELVATINRDGRTSYADSVKGRFTSSRDNAKNTVYLQMHSLKPEDTAVYYCAATYLLERPTSKHPRYDYWGQGTQVTLSS”, the “polyreactivity (PSR sort gate)” value was “low polyreactivity”.

For “QVQLVESGRGLVQAGGSLRLSCAASGITFGDNVMGWYRQAPGKERELVAAISRIGDDTYYADSVKGRFTISRDNAKNTVYLQMNSLKPEDTAVYYCATDYTQRDYYNYGYWGQGTQVTVSS”, the “polyreactivity (PSR sort gate)” value is “low polyreactivity”.

With “QVQLVESGRGLVQAGGSLRLSCAASGITFGYYAMGWSRQEPGKQSELVAAISFNGASTYYADSVKGRFTISRDNAKNTVYLQMNSMKPVDNAVYYCNRSTSYAQYFDVMDYWGQGTQVTVSS”, the “polyreactivity (PSR sort gate)” value is on record as “low polyreactivity”.

With “QVQLVESGRGLVQAGGSLRLSCAASGNTLLKNAMGWYRQAPGKERELVAAISSSGGRTYYADSVKGRFTISRDNAKNTVYLQMNSLKQEDTAVYYCAARYPSGYYYWGQGTQVTVSS”, the “polyreactivity (PSR sort gate)” value is “high polyreactivity”.

“QVQLVESGRGLVQAGGSLRLSCAASGRIFSSNAMVWYRQAPGKERELVAAISQGGGSTYYADSVKGRFTISRDNAKITVYLQMNSLIPEDTAVYYCAAETGYSGYDDSAYEYWGQGTQVTVSS”: the “polyreactivity (PSR sort gate)” value is listed as “low polyreactivity”.

Consider “QVQLVESGRGLVQAGGSLRLSCAASGRILDSNAMGWDRQAPGKESELVAAITWRGGSTYYADSVKGRFTISRDNAKNTVYLQMNSLKPEDTAVYYCNARWSKTAHTRFGYWGQGTQVTVSS”, for which the “polyreactivity (PSR sort gate)” value is given as “low polyreactivity”.

Regarding “QVQLVESGRGLVQAGGSLRLSCAASGSIFGFYAMGWYREAPGKESELVAAINSGSTNYADSLKGRFTISRDNAKNTVYLQMNSLKPEDTAVYYCNKDKGVQSYVSSDARYNYWGQGTQVTVSS”, the “polyreactivity (PSR sort gate)” value is “low polyreactivity”.

With “QVQLVESGRGLVQAGGSLRLSCAASGSIFGTNTMGWYRQAPGKERELVAAISWSGGSTYYADSVKGRFTISRDNAKNSVYLHMNSLKPEDTAVYYCNAVYPSVYPVSTRYYWGQGTQVTVSS”, the “polyreactivity (PSR sort gate)” value is reported as “high polyreactivity”.

For “QVQLVESGRGLVQAGGSLRLSCAASGSIFNAYAMGWYRQAPGKERELVADISKRTSYADSVKGRFTISRDNAKNTVYLQMNSLKPEDTADYYCAKEVDEPDGYEYDYWGQGTQVTVSS”, the “polyreactivity (PSR sort gate)” value is on record as “low polyreactivity”.

In the case of “QVQLVESGRGLVQAGGSLRLSCAASGSIFYNNAMGWYRQAPGKERELVAAIRSTGTRTYYADSVKGRFTISRDNAKNTVYLQMNSLKPEDTAVYYCAVGDYGLWSYDCWGQGTQVTVSS”, the “polyreactivity (PSR sort gate)” value is “low polyreactivity”.

For “QVQLVESGRGLVQAGGSLRLSCAASGSILSINGMGWYRQAPGKERELVATIDGSDGSTFYADSVKGRFTISRDNAKNSVYLQMNSQKPEDTAVYYCAAENFWQTKEYDYWGQGTQVTVRS”, the “polyreactivity (PSR sort gate)” value was “low polyreactivity”.

For “QVQLVESGRGLVQAGGSLRLSCAASGSISGGNAMGWYRQAPRKARELVAANDYTDDSTYYADSVKGRFTISRDNAKNTVYLQMNSQKPEDTAVYYCAADAYRAQGDYWGQGTQVTVSS”, the “polyreactivity (PSR sort gate)” value is “low polyreactivity”.

On to “QVQLVESGRGLVQAGGSLRLSCAASGSTFNSYAMGWYRQAPGKERELVAAIRWSGSSTYYADSVKGRFTISRDNAKNTVYLQMNSLKAEDTAVYYCSKGYSYGRPWDIYYYWGQGTQVTVSS”, for which the “polyreactivity (PSR sort gate)” value is “low polyreactivity”.

With “QVQLVESGRGLVQAGGSLRLSCAASGSTFYIYAMGWYRQAPGKERELVAAISTTDGTTYYADSVKGRFTISRDNAKNTVYLQMNSLKPEDTAVYYCAAEWFGSVQPAYDYWGQGTQVTVSS”, the “polyreactivity (PSR sort gate)” value is “high polyreactivity”.

“QVQLVESGRGLVQAGGSLRLSCAASGYTFGYNAMGWYRQAPGKERELVATNSSGRTTTYADSVKGRFTISRDNAKNNVYLQMNSLKPEDNAGYYCATPVYRSSYEYDYWGQGTQVTVSS”: the “polyreactivity (PSR sort gate)” value is reported as “low polyreactivity”.
